From the DeepSol protein solubility set come the findings set out here.

This data set is described as follows: soluble on expression in E. coli; label from the status in PepcDB or PDB records.
“MAHHHHHHMGDFALISMNGDRVFISLDPVFTSQSLWLQAAEGLGEREGVVPIASTETLHNLVEYMAFQAKRMAGVAEGECKGGQTVTLPISCTTCSGSGGLGYDVHSLLPDHDIAFLDRFGGTGGVWEVEQQEKLMELMATADFVGHGRLSRLCAVYISCRLMSATESDILSWFSVCGDRCGGVASADPEADDGNRAGERVLRDAERLRILNQMRKYIEIED”: the “soluble on expression in E. coli” value is reported as “not soluble”.
With “MSSEPPPPPQPPTHQASVGLLDTPRSRERSPSPLRGNVVPSPLPTRRTRTFSATVRASQGPVYKGVCKCFCRSKGHGFITPADGGPDIFLHISDVEGEYVPVEGDEVTYKMCSIPPKNEKLQAVEVVITHLAPGTKHETWSGHVISS”, the “soluble on expression in E. coli” value was “soluble”.
Next, “MGSDKIHHHHHHMDWGIYMKQLPFKAVAVDVDGTFENDKKEYDHEMFGEILYRLHKHGAHFIIASGRPAGRLSDDFGDFIDSVDFVADNGAVLVRDGKIIRTTCFSKKGILHLIDYMHQRYPGSVTTLLISGVKHSYFLKSTPPEFKRSHHYFYPNSIEIDDFSQIPADDQYTKITVDYPSKVRHELEYGFNSRSMEKIHVTTSGWNYMDIIPQGVNKATGLKEFLAYLDVPRSELIAFGDGENDIEMLKLAGLSYAMENGQNSVKKIANFIAPSNNDNGVFKVLNHYLNEVNK”: “not soluble”; “MAHHHHHHMRPVIVMLLHEEQDTGAYMIKYLVTRGMDFVMFRCWEERVASLVPKAAGETIRCLPVANKPHHYVPCLVNSTAAPSTESESLVTTSTSLAPVSSNVAEDCRIRAVASFGGSMSVNDELSYFESIRSLMRSCLEKRIPVIGHCLGGQLLSSALGGRIVLSENIEVGWYEMVVEEAEDVKDWFGGRKRFDAFHIHTDSFTIPQGARRIVTGAYCANQAFQVGDQFALGMQFHPEVDEDKVRSLISSQFPTLYTEEELADILRKGAEGAKTPDGRPLVSPGSMTRECIEKCLREGRIEQNRPIADSIYDTWCSGFLF”: “not soluble”; “FQGAMSSSIDISKINSWNKEFQSDLTHQLATTVLKNYNADDALLNKTRLQKQDNRVFNTVVSTDSTPVTNQKSSGRCWLFAATNQLRLNVLSELNLKEFELSQAYLFFYDKLEKANYFLDQIVSSADQDIDSRLVQYLLAAPTEDGGQYSMFLNLVKKYGLIPKDLYGDLPYSTTASRKWNSLLTTKLREFAETLRTALKERSADDSIIVTLREQMQREIFRLMSLFMDIPPVQPNEQFTWEYVDKDKKIHTIKSTPLEFASKYAKLDPSTPVSLINDPRHPYGKLIKIDRLGNVLGGDAVIYLNVDNETLSKLVVKRLQNNKAVFFGSHTPKFMDKKTGVMDIELWNYPAIGYNLPQQKASRIRYHESLMTHAMLITGCHVDETSKLPLRYRVEVSWGKDSGKDGLYVMTQKYFEEYCFQIVVDINELPKELASKFTSGKEEPIVLPIWDPMGALA”: “soluble”.
Then “MGSDKIHHHHHHMVRPRIKLTEHLSTEEIEQSYRRCEDAQEKTRWLVIKLLNQQPQLSAQKVAEIVGFSGDWVRKIVRRYNKLGANGIINQQKLKPGGKKLALTNEQQQWLRQRLASPPEDGGLWSAPKVGELIRVQFGITLHVTTAWDYLKRLGFSLQQPRPLHTEAATFVQRQMFKTELTEFVRLLRFLHPHKSVEVWAEDEARLGLKPIVRRVWTPVGHRPNAVHRTRYQWLYTYGFVHPATGESFFLILPRVNIAVMQMALDAFAAEVNPHHHKIIVLLVDQAGWHTSKQLMLPAGIILFPLPAYTPQLQPTECVWSLLREAVANQMFSTLDELETVLISRCQWLMSHPQIVHGKVGFDWICQI”, with “not soluble”.
For “MLGLFDQGRLIGAVVLDPRRLGPERDWLQLKFLHLSHAYRRRGLGAHLFHLAATQARHLGASALYVSATPSQNTVDFYTRLGCR”, the “soluble on expression in E. coli” value is “soluble”.
Then “MHHHHHHSSGVDLGTENLYFQSNAMSHSIEQLSINTIRTLSIDAIEKANSGHPGMPMGAAPMAYTLWTQFMKHNPNNPTWFNRDRFVLSAGHGSMLLYSLLHLSGYDVTMDDLKNFRQWGSKTPGHPEYGHTAGVDATTGPLGQGIATAVGMAMAERHLAAKYNRDAYNIVDHYTYAICGDGDLMEGVSAEASSLAAHLQLGRLVVLYDSNDISLDGDLNRSFSESVEDRYKAYGWQVIRVEDGNDIEAIAKAIEEAKADEKRPTLIEVRTTIGFGSPNKSGKSASHGSPLGVEETKLTKEAYAWTAEQDFHVAEEVYENFRKTVQDVGETAQAEWNTMLGEYAQAYPELANELQAAMNGLLPEGWEQNLPTYELGSKAATRNSSGAVINAIAESVPSFFGGSADLAGSNKTYMNNEKDFTRDDYSGKNIWYGVREFAMGAAMNGIALHGGLKTYGGTFFVFSDYLRPAIRLAALMQLPVTYVFTHDSIAVGEDGPTHEPIEQLAALRAMPNVSVIRPADGNESVAAWRLALESTNKPTALVLTRQDLPTLEGAKDDTYEKVAKGAYVVSASKKETADVILLATGSEVSLAVEAQKALAVDGVDASVVSMPSMDRFEAQTAEYKESVLPKAVTKRFAIEMGATFGWHRYVGLEGDVLGIDTFGASAPGEKIMEEYGFTVENVVRKVKEML”, with “soluble”; and “MSLIEIPGFIDLHTHTRYPDNDKFPFIDIDDSAINGGFSTILAMPNSEIPIDSIKNLRIAQEIDKKLKTKVHRVGSLTKNLEGKELVNYKEFVENGITIFSDDGKSLINDHLADEAFKQISKLGGAVFQHCEKSCHSKPGDIAPPNSNSDLILINNDEELEVLERDLSLSEKYGTRYHAQHLSTFESVELIKKAKQEGLPVTAEVTPHHILLNNENLDTNNGLFKMYPPLRTEKDREGLVEGLQSEIIDVIATDHAPHKAETKNVPFKDANRGVVGLNEGHHHHHH”, with “soluble”.
For “KFFNLFLKKGNKINPLIGNAGVSAVPDSARISQVIGLEYDPTNYLLMHAM”, the “soluble on expression in E. coli” value is given as “not soluble”.
Then “MVKKVKGRRYEGSIEQRSKNSWRMRVTVGYDYKGTPIRADRTTRTKNERERERELRNFITELEQNGYTAPARMTFKAFVENEYMPKHAQNNLEVKTWTEYYKSIVARAYPAFGGVQMDKITTLHIVNLVAKLQKPGARLDVKPTDSDEKKNKPLSPRSIRNIYFAINSVFETAVEWKVIPINPAEGVRLPKTTKRPPTIYTPAEIELLNAALVKEPLRLQVMIYIALISGCREAELAALEVKHVNLIEDELTFEQTLVAKAGEGLLLKESTKNDVAGIVSIPAWLTNLIETYISNEVLDLKTEGKWANHKFLFADMEGKPIRPDSIYQRWKRFLERHNLPVIRFHDLRHTSATLLLNKGRDIKIIQERLRHKSSVTTSNIYAHVLKDTHKDAASDFENPF”, with “not soluble”; and “MGSDKIHHHHHHMKATSSFKGQTTGLYIVPTPIGNLEDMTYRAVRILQESDLVAAEDTRQTMKLFNHFKIETKLVSYHEHNKQVSGARLLADLHAGKQIALVSDAGMPGISDPGSDLIREAIAEDIPVIVLPGANAALTALVASGLATERFLYYGFLPRKKKERREALETVRYEKGSLIFYEAPHRLKEMLGALRDVLGDRQLTLARELTKRYEEYIRGSVTEALEWAEEEVRGEFVVIVEGSTEERPAEEEQKADPLQQIERYIEQGEKPNAALKRVAKERGLDRQELYLRYHES”, with “not soluble”.
On to “MGCLSYMVLSGDEALVVDPLRFIDVYEQVAQQEGVTITHIVDSHLHADHLSGGKALAERTGAAYYLMKSEGAVFDFEPLEQHETIDFENVHLEVLAVKTPGHTPGSVSFFVNGKWLFSGDTIFVGGLGRPDLGGKVAEWAEDLYHTVYEKVAAMADDVIVLPAHYANLDEEINAEGYVGDTLGRIRARNEMMQNKAKDEFIDLVIQGLEHHHHHH”, for which the “soluble on expression in E. coli” value is reported as “not soluble”.
For “ARFYSDGLKLAGTLFVPDDYEPGQKRPAVLICHGRFAIKEWVPSRWTPHFLAAGYVCMVFDYRNLGESEGTPGRIIPDEEVRDARHALTYLQCQPEVDPARIGALGWGLGGGVAVSAAAHDARIKAVVCAIGVANGGRYGRVGMSDAAWAARQEQIAADRRERVLTGRSARLPRTEILGRPDAQRAERHERQNWIDSLVAAVGPERAADPAKLGIPDEITLESMEALYDFAPDAVVDRIAPRPLLIVHARDDHEFPFEHAADMYERAAQPKQLIAVEDAGHLDWIDPAHPSQQVYVPQVVAWMQAQL”, the “soluble on expression in E. coli” value is given as “not soluble”.
Next, “MAIDFNAMPPSTWAENLARNQLSKLQTQLDTQTKSAKARTDALSQLQKALQDYKSSLATLTGKKSLVAMNAAATPDGMASVTAKGNAAAGNYSVFVEQLASSQQ”: “not soluble”; “MATIRTKFRSSSAEGREGALYYQVIHNRVVRQISTGYKLFASEWDQRSEAVIPCQHPAGMERDNYLLSVGERIRRDKIRLEKAIRTLSQSGPFTADDIVIRFHDSGQEPSFNDYIRQQIVRLKRLGKIRTSETYTAALKSFSSFMKGSDILFGELSSDLLMEYEAYLKNRGNSPNTISFYMRILKAVYNRAVENGLTGQRNLFKSVYTGVEKTLKRAIHLNDIRRIKRLDLSLKPHLDFARDMFLFCFYTRGMSFVDMAYLKKGDIANGILTYRRKKTGQQLFIRWEKCMQEIIKLFCLSVQDFKVVH”: “not soluble”.
Then “MNAITPTPGIDKEAFDRAANAVRRLCGWHIFPIIEETITLDSPGDSLLVLPTKHLVEIINVTIDGTTYPLSDFRSSPDGLLVKRHGRFPRGIAMVTVTMKHGYEKPTEILGVINDMARRANESNLTQLNVGGISVGATNSATPQSSEWRIVDELRLGPLP”, with “not soluble”.
Next, “MAHHHHHHMHAYSGRMEHRKMVEVKDVPQNMYTYGKEGMSIPISIFKDQADPVIGPEWTYPGIFENKIVAQHWYMEELFDREKSNTFESPWQRQVLDNQVKRRLGKVAWRMSMLNIKTIDIFHKERGASKRPGAGDTKAPATPAGKK”: “not soluble”; “MATQDDAHLAELKKKRTFRKFMYRGVDLDQLLDMSREQFTKLLPCRMRRRLDRGLKRKHLALIAKVQKAKKAAGVLEKPATVKTHLRDMIILPELVGGVIGIYNGKVFNQTEIKPEMIGFYLGEFAISYKPVKHGRPGIGATHSSRFIPLK”: “not soluble”; “GSGPTYCWNEANNPGGPNRCSNNKQCDGARTCSSSGFCQGTSRKPDPGPKGPTYCWDEAKNPGGPNRCSNSKQCDGARTCSSSGFCQGTAGHAAA”: “soluble”.
Regarding “MSLGVEENPKLPKSVQRHLEPDERVLFAIKKKISIEKPKWLLVTDRRIIYLDEKVLGRYDFKAIPYQKLEQVVVKLGIMSSEFIIEGEENITLKLGWMDKEEARKAINAIKDALNAIAVEPVSIDVNKGLTSETWVLKKPREFVTRTMPAYQPAQVREEKEDPLEKLKKLKELYDMGVISQEEYEEKRKKLLEEIEGHHHHHH”, the “soluble on expression in E. coli” value is listed as “soluble”.
Then “MSLRLPPPDARPIRVVCISDTHTLELADMPDGDLLIHAGDLCNDGSAKEIQAAVDWLRKLPHPQKVVICGNHDSYFDIRSRRFEDRDQSLATVSSSTASLRSVDDFDFPHCIDWGDIHYLQHSSVTVTFPPLPQTPSSSSALLASRPRSLTIYGAPQIPAIVPFGPEHAFAYPAHHDAWSGTIPPNTDIMVTHTPPQSHLDLSPVFSTGCPFLLSEAWRIRPALHVFGHVHAAYGREPVYWDEAQKAWERICSSRREGHHHHHH”, with “not soluble”.
